Patent US20160368980A1, “INHIBITION OF GRANULOCYTE COLONY STIMULATING FACTOR IN THE TREATMENT OF CANCER” (STC.UNM, priority 2014, published 2016)

B1: G-CSF: recombinant G-CSF (eBioscience), pro-inflammatory cytokine (protein, UniProt P09920 31-208, looked up)
Granulocyte …: VPLVTVSALPPSLPLPRSFLLKSLEQVRKIQASGSVLLEQLCATYKLCHPEELVLLGHSLGIPKASLSGCSSQALQQTQCLSQLHSGLCLYQGLLQALSGISPALAPTLDLLQLDVANFATTIWQQMENLGVAPTVQPTQSAMPAFTSAFQRRAGGVLAISYLQGFLETARLALHHLA

Legend:
Assay type in all cases: cell-based, human
[1] = test system: MKN-45 and Caco-2 carcinoma cells; test: G-CSF induced proliferation (CyQuant) with ERK1/2 or RSK inhibitors; conditions: 10 μM inhibitor, 30 min before recombinant G-CSF
Description: Proliferation: MKN-45, AGS, Caco-2 and DLD1 cells (2500 per well) were added to wells of a 96 well plate and incubated with 5-25 ng/ml of recombinant G-CSF (eBioscience) or conditioned media from MF for 48 hours. Conditioned media included a mixture of 50% media from cultured myofibroblasts and 50% fresh media for nutrients. Media from MF was taken when cells were 80% or greater confluent before passage (from approximately 1×10^6 cells). Proliferation was measured using CyQuant dye for DNA content (Life Technologies). […] Samples were read on a Tecan fluorescent plate reader (Mannedorf, Switzerland).
However, most of the studies have been performed in myeloid cells or neutrophils. Thus, we sought to examine G-CSFR signaling in MKN-45 and Caco-2 cells. […] Cells were lysed and protein levels normalized. […] A 5-fold increase in phosphorylation was found in MKN-45 and a 10-fold increase in phosphorylation was found in Caco-2 cells (FIGS. 6A and B). […] ERK1/2 or RSK inhibitors were added to some wells of cells before addition of G-CSF, and proliferation examined by CyQuant proliferation assay for DNA content.

[2] = test system: MKN-45 and Caco-2 cells; test: Aldefluor / CD44 staining of stem-like population by flow cytometry; conditions: for effect on G-CSF-induced stem marker expressing cell expansion (aldehyde dehydrogenase high, CD44): treatment with ERK1/2 or RSK inhibitor before G-CSF
Description: (§1) Flow Cytometry: Single-and multi-color immunostaining was performed according to standard surface and intracellular FACS staining Biolegend protocols (Biolegend, San Diego, Calif.). Anti-Ep-cam Alexa-Fluor 488 (Biolegend 9c4) was used for identification of epithelial cells. The purity of MF was analyzed by staining for CD90-PE (Biolegend Thyl) and α-smooth actin-FITC (R&D Systems 1C14206) for flow cytometry compared to isotype controls. Anti-G-CSFR-PE (clone 1 mm 741 Biolegend) and G-CSF-FITC (clone 85FSCSF eBioscience) were used for the analysis of G-CSFR surface expression and intracellular G-CSF after 4 hour exposure to Brefeldin A compared to isotype controls. Anti-proliferating cell nuclear antigen (PCNA) (clone PCNA01, Biolegend) was used as a proliferation marker. Cancer stem-like populations in carcinoma cell lines were examined by staining with Aldefluor (Stem Cell Technologies, Vancouver, BC) and anti-CD44-APC (Biolegend clone BJ18) using the manufacturer's Aldefluor staining protocol compared to isotype control. All samples were analyzed on a Guava easyCyte 8HT flow cytometer (Millipore, Bellerica, Md.), and analyzed using FCS Express software (DeNovo Software, Los Angeles, Calif.).
Therefore, assessment of MKN-45 and Caco-2 cells for a similar population was undertaken. […] Cells were also stained with CD44, since in gastric and colon cancers CD44 has also been shown on cells with stem-like features (Huang et al., 2009; Katsuno et al., 2012; Su et al., 2011b; Takaishi et al., 2009; Wakamatsu et al., 2012). To examine Aldefluor staining, cells were gated on the CD44 positive population. Then, another gate was set using the diethylaminobenzaldehyde (DEAB) inhibitor of aldehyde dehydrogenase as a negative control (FIG. 5A). […] G-CSF treatment expanded this population from 6% to 16% of the cell population (FIGS. 5C). Further, 48 hour treatment of MKN-45 and Caco-2 cells with 10 ng/ml of G-CSF led to an approximately 10% increase in the stem-like Aldefluor^highCD44^+population (FIG. 5D) with both cell types.
In parallel, ERK1/2 and RSK inhibition were also examined for effects on stem-like populations.

[3] = test system: ERK1/2 and RSK1 phosphorylation in MKN-45 cells; test: Luminex signaling bead array, ERK1/2 and RSK1 phosphorylation, MKN-45; conditions: recombinant G-CSF 10 ng/ml
Description: (§2) Luminex Arrays: G-CSF levels were measured in cell culture supernatants by singleplex fluorescent bead based array (Life Technologies) according to manufacturer's instructions. ERK1/2 and RSK phosphorylation were measured by Milliplex MAPmates phospho-ERK1/2 and RSK arrays (EMD Millipore, Billerica Mass.) according to the manufacturer protocol. All samples were analyzed on a Luminex 200 machine.
(§3) Some studies have shown that G-CSFR signaling induces signaling pathways that lead to cell proliferation (Kamezaki et aL, 2005; Wang et al., 2008). However, most of the studies have been performed in myeloid cells or neutrophils. Thus, we sought to examine G-CSFR signaling in MKN-45 and Caco-2 cells. Cells were pre-incubated with serum free media for 2 hours before treatments and recombinant G-CSF (10 ng/ml) was added to wells in 15 min intervals. Cells were lysed and protein levels normalized. […] A 5-fold increase in phosphorylation was found in MKN-45 and a 10-fold increase in phosphorylation was found in Caco-2 cells (FIGS. 6A and B). […] Since we found phosphorylation of these signaling molecules after G-CSF treatment, we further sought to characterize the role of these pathways in the increased cell proliferation resulting from G-CSF treatment observed in MKN-45 and Caco-2 carcinoma cells shown in FIG. 3. […]

[4] = test system: gastric and colon carcinoma cells; test: Intracellular PCNA staining by flow cytometry; conditions: G-CSF treated cells, both cell types
Description: as §1, with “Cancer stem-like populations in carcinoma cell lines were examined by staining with Aldefluor (Stem Cell Technologies, Vancouver, BC) and anti-CD44-APC (Biolegend clone BJ18) using the manufacturer's Aldefluor staining protocol compared to isotype control.” left out
MKN-45 and AGS gastric carcinoma cells and Caco-2 and DLD1 colon carcinoma cells were incubated with increasing doses of recombinant G-CSF (5-25 ng/ml), which were chosen based on reports of serum concentrations in patients (Morstyn et al., 1989). After 4 days (approximately 2 doubling times), proliferation was measured using the CyQuant fluorescent proliferation assay for DNA content. […]

[5] = test system: ERK1/2 and RSK1 phosphorylation in Caco-2 cells; test: Luminex signaling bead array, ERK1/2 and RSK1 phosphorylation, Caco-2; conditions: recombinant G-CSF 10 ng/ml
Description: as §2, §3

[6] = test system: Caco-2 and DLD1 colon carcinoma cells; test: CyQuant proliferation assay for DNA content, colon carcinoma cells; conditions: recombinant G-CSF 5-25 ng/ml, after 4 days, Caco-2 and DLD1, dose dependent
Description: (§4) Proliferation: MKN-45, AGS, Caco-2 and DLD1 cells (2500 per well) were added to wells of a 96 well plate and incubated with 5-25 ng/ml of recombinant G-CSF (eBioscience) or conditioned media from MF for 48 hours. Conditioned media included a mixture of 50% media from cultured myofibroblasts and 50% fresh media for nutrients. Media from MF was taken when cells were 80% or greater confluent before passage (from approximately 1×10^6 cells). Proliferation was measured using CyQuant dye for DNA content (Life Technologies). Other samples were incubated with 10 μM ERK activation inhibitor peptide 1 or RSK inhibitor SL0101 (EMD Millipore) for 30 min before addition of recombinant G-CSF. Samples were read on a Tecan fluorescent plate reader (Mannedorf, Switzerland).
(§5) MKN-45 and AGS gastric carcinoma cells and Caco-2 and DLD1 colon carcinoma cells were incubated with increasing doses of recombinant G-CSF (5-25 ng/ml), which were chosen based on reports of serum concentrations in patients (Morstyn et al., 1989). After 4 days (approximately 2 doubling times), proliferation was measured using the CyQuant fluorescent proliferation assay for DNA content. G-CSF treated cells were compared to untreated control cells. […] To further confirm G-CSF induction of cell proliferation, G-CSF treated cells were stained intracellularly for proliferating cell nuclear antigen (PCNA). […]

[7] = test system: MKN-45 and Caco-2 cells; test: Fluoroblok migration assay (8 micron pores, CFSE-labeled cells); conditions: 10 ng/ml G-CSF in bottom wells, 4 hours
Description: Migration: MKN-45 and Caco-2 cells were stained with carboxyfluorein succinimidyl ester (CFSE) (Life Technologies) and added to the top of Fluoroblok 96 well plates with […]. Serum free media, media with 10% FBS, recombinant G-CSF, or MF supernatants were added to the bottom of the wells. G-CSF neutralizing antibodies (1 μg/ml) were added to some cultures. The fluorescence of migrated cells was measured after 4 hours of incubation at 37° C. on a Tecan plate reader.
Given the ability of G-CSF to mobilize bone marrow derived hematopoietic cells during systemic administration (Held and Gundert-Remy, 2010), we assessed whether it could increase the migratory ability, and therefore the malignant potential, of gastric and colon cancer cells. MKN-45 and Caco-2 were serum starved overnight, fluorescently labeled with CFSE, and plated on FluorBlok™ plates with 8 micron pores and serum free media in the top of the wells. The bottom wells were filled with serum free media, serum free media containing 10 ng/ml of G-CSF or serum containing media (positive control). […] Both cell types migrated through the pores toward serum as a positive control, and at even higher rates toward G-CSF. […]

[8] = test system: MKN-45 and AGS gastric carcinoma cells; test: CyQuant proliferation assay for DNA content, gastric carcinoma cells; conditions: recombinant G-CSF 5-25 ng/ml, after 4 days, dose dependent
Description: as §4, §5

Row | Molecule | effect on G-CSF induced proliferation [1] | effect on G-CSF-induced stem marker expressing cell expansion (aldehyde dehydrogenase high, CD44) [2] | increase in ERK1/2 and RSK1 phosphorylation [3] [fold] | incubation time of peak ERK1/2 and RSK1 phosphorylation [3] [min] | increase in PCNA staining compared to untreated cells [4] | increase in ERK1/2 and RSK1 phosphorylation [5] [fold] | incubation time of peak ERK1/2 and RSK1 phosphorylation [5] [min] | increase in proliferation compared to untreated cells [6] | increased migration compared to serum containing media [7] [fold] | increased migration compared to serum free media [7] [fold] | increase in proliferation compared to untreated cells [8] [fold] | increase in the stem-like Aldefluor high CD44+ population ([2]; 48 hour treatment, 10 ng/ml G-CSF, MKN-45 and Caco-2 (both cell types)) | stem-like Aldefluor population, share of the cell population after G-CSF treatment ([2]; MKN-45, gated on CD44 positive, untreated 6%) [%]
1 | CC(=O)O[C@@H]1[C@@H](OC(C)=O)[C@@H](O)[C@H](Oc2c(-c3ccc(O)cc3)oc3cc(O)cc(O)c3c2=O)O[C@H]1C [RSK inhibitor, SL0101, reference compound] | drastically inhibited | completely abrogated | – | – | – | – | – | – | – | – | – | – | –
2 | ERK activation inhibitor peptide 1 [ERK1/2 inhibitor, reference compound] | drastically inhibited | completely abrogated | – | – | – | – | – | – | – | – | – | – | –
3 | B1 | – | – | 5 | 30 | greater than 2 fold | 10 | 30 | up to 4.5 fold | 1.5 | ≤ 4 | ≤ 2.5 | approximately 10% | 16
